These results are taken from patent US20160106861A1, “AXL ANTIBODY-DRUG CONJUGATE AND ITS USE FOR THE TREATMENT OF CANCER” (PIERRE FABRE MEDICAMENT, priority 2013, published 2016).

In experiment [1] the target is T1, recombinant human Axl-Fc (R and D Systems, cat N° 154AL/CF) (human, UniProt P30530 26-451).
T1 construct: Bought protein; also called rhAxl-Fc; rh Axl-Fc protein; not shown: Fc of human IgG (coating control with anti-human IgG Fc)
T1 sequence: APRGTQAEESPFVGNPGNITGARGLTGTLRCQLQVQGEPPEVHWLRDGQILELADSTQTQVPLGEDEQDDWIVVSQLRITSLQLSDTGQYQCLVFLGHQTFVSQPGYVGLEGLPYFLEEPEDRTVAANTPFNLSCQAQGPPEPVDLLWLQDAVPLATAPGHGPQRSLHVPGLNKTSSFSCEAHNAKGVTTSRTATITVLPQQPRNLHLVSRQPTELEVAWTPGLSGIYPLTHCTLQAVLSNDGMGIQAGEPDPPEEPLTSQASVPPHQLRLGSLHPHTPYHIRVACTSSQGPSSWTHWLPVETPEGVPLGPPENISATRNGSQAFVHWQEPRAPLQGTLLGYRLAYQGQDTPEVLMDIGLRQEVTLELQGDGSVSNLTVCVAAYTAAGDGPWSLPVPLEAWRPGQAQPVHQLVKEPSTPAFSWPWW
Briefly: ELISA on coated rhAxl-Fc. Background: In an ELISA, binding on a coated surface is turned into a signal by an enzyme label.

Another experiment concerns SN12C cells. Put plainly: Internalization study by fluorescent immunocytochemistry (confocal microscopy). The note with it: 10 μg/ml, 1 h and 2 h at 37° C. The format is cell-based, human. As for the experimental part: Briefly, SN12C tumor cell line was cultured in RMPI1640 with 1% L-glutamine and 10% of FCS for 3 days before experiment. Cells were then detached using trypsin and plated in 6-multiwell plate containing coverslide in RPMI1640 with 1% L-glutamine and 5% FCS. The next day, 1613F12 was added at 10 μg/ml. Cells treated with an irrelevant antibody were also included. The cells were then incubated for 1 h and 2 h at 37° C., 5% CO2. For T 0 h, cells were incubated for 30 minutes at 4° C. to determine antibody binding on cell surface. Cells were washed with PBS and fixed with paraformaldehyde for 15 minutes. Cells were rinsed and incubated with a goat anti-mouse IgG Alexa 488 antibody for 60 minutes at 4° C. to identify remaining antibody on the cell surface. To follow antibody penetration into the cells, cells were fixed and permeabilized with saponin. A goat anti-mouse IgG Alexa 488 (Invitrogen) was used to stained both the membrane and the intracellular antibody. […] Cells were washed three times and nuclei were stained using Draq5. After staining, cells were mounted in Prolong Gold mounting medium (Invitrogen) and analyzed by using a Zeiss LSM 510 confocal microscope.

Experiment [2] relates to MCF7 human breast tumor cell line. Put plainly: FACS binding on MCF7 cells. How it is done:
For cell surface binding studies, two fold serial dilutions of a 10 μg/ml (6.66 10^−8 M) primary antibody solution (1613F12, MAB154 or mIgG1 isotype control 9G4 Mab) are prepared and are applied on 2·10^5 cells for 20 min at 4° C. After 3 washes in phosphate-buffered saline (PBS) supplemented with 1% BSA and 0.01% NaN3, cells were incubated with secondary antibody Goat anti-mouse Alexa 488 ( 1/500° dilution) for 20 minutes at 4° C. After 3 additional washes in PBS supplemented with 1% BSA and […], cells were analyzed by FACS (Facscalibur, Becton-Dickinson). At least 5000 cells were assessed to calculate the mean value of fluorescence intensity.
1613F12 dose response curves were prepared. MFIs obtained using the various human tumor cells were then analysed with Prism software.

For experiment [3], the target named is T2, rhDtk-Fc (R and D Systems, cat N° 859-DK) (human, UniProt Q06418 41-428, limits assumed).
T2 construct: Bought protein; also called Tyro3; not shown: Fc of human IgG
T2 sequence (looked up): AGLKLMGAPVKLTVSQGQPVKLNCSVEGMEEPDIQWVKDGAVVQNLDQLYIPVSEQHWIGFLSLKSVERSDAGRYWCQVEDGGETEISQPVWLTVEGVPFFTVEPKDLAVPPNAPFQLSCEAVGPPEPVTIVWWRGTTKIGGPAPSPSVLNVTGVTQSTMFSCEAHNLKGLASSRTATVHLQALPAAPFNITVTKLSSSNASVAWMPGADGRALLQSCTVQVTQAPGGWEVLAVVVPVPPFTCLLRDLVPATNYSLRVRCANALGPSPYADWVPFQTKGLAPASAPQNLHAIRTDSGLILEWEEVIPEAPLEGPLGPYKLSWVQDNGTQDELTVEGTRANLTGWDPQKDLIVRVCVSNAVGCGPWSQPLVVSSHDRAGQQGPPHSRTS
Briefly: ELISA on coated protein.

The target of experiment [4] is T3, human Axl receptor on the surface of human tumor cells (human, UniProt P30530 26-894).
T3 construct: Endogenous Axl on human tumor cell lines (SN12C, Calu-1, MDA-MB435S, MDA-MB231, NCI-H125, Panc1); also called cell-surface Axl; membrane Axl receptor
T3 sequence: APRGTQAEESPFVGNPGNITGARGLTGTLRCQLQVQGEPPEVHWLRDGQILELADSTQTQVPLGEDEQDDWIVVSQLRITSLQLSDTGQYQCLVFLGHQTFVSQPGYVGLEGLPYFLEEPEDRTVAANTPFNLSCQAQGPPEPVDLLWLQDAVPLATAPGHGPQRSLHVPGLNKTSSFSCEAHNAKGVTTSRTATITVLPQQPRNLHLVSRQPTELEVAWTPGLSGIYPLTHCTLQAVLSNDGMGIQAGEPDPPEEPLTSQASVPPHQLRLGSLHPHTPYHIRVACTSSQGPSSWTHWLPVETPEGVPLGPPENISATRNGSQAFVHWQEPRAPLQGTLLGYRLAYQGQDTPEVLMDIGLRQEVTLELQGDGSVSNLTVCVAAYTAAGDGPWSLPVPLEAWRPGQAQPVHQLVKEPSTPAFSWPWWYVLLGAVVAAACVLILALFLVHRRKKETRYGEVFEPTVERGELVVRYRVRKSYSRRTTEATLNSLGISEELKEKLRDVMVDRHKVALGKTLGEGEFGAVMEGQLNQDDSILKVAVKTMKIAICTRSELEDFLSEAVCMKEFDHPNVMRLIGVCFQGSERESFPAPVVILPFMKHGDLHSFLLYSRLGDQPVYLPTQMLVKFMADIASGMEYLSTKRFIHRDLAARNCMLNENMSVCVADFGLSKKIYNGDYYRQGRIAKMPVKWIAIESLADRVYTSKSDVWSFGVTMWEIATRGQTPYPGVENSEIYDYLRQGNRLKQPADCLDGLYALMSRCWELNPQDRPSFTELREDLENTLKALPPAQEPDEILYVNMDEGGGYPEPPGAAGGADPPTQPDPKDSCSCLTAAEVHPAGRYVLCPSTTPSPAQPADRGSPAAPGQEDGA
Put plainly: flow cytometry on human tumor cells. For orientation: Flow cytometry measures light scatter and fluorescence of single cells or particles in a stream.

B1: m1613F12 (murine 1613F12, hybridoma CNCM I-4505) (antibody, V domains shown)
VH: EVHLQQSGAELVKPGASVKLSCTASGFNIRDTYIHWVKQRPEQGLEWIGRLDPANGHTKYGPNFQGRATMTSDTSSNTAYLQLSSLTSEDTAVYYCARGAYYYGSSGLFYFDYWGQGTTLSVSS
VL: DVQITQSPSYLATSPGETITINCRASKSISKYLAWYQEKPGKTNKLLIYSGSTLQSGVPSRFSGSGSGTDFTLTISSLEPEDFAMYFCQQHHEYPLTFGAGTELELK
notes: Murine monoclonal antibody; also called Axl antibody
On to B1, for which the results for the binding result in experiment [1], in experiment [3] and in experiment [4] were “binds”, “no binding” and “binds”, respectively. Also, in the experiment on SN12C cells, the “internalization (membrane and intracellular staining)” value is recorded as “internalization of 1613F12 into SN12C cells”. The “binding of Axl receptor on MCF7 (FACS)” value in experiment [2] is “No binding of Axl receptor was observed”.
